# Measurements as given in paper PMC3680417, “Phosphorylation of the Leukemic Oncoprotein EVI1 on Serine 196 Modulates DNA Binding, Transcriptional Repression and Transforming Ability”.
# How the values were obtained:
# [1] = biological target: GST-Evi1 ZF1-7 S196A (mouse, UniProt P14404-1 21-239, S196A); assay: EMSA; EMSA as in cited ref. 6; native 5% acrylamide gel; buffer, salt, pH and temperature not stated; conditions: protein: recombinant; tags: GST (N-terminal, pGEX); label: 5' IRDye
# [2] = biological target: GST-Evi1 ZF1-7 WT (mouse, UniProt P14404-1 21-239); assay: as above; conditions: protein: recombinant; tags: GST (N-terminal, pGEX); label: 5' IRDye
# GST-Evi1 ZF1-7 WT, sequence (P14404 211-429): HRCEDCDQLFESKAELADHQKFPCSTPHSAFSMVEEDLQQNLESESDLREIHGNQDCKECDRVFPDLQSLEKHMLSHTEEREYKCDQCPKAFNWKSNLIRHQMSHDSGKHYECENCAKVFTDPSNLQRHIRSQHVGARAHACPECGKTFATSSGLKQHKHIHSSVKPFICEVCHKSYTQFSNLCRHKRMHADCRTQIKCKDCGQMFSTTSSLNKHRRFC
# GST-Evi1 ZF1-7 S196A, sequence (P14404 211-429 S386A): as the sequence (P14404 211-429) above, with S176A counted along it
binder,measurement,setting,value
EVI1 ZF1-7 target EMSA probe (dsDNA) DNA 1: ACCCATGGAGCTTTGAGCCCTGTTATCTTGTCAGGGAAGTGTACCATGGA DNA 2: TCCATGGTACACTTCCCTGACAAGATAACAGGGCTCAAAGCTCCATGGGT,binding result,[1],binds
same,binding result,[2],binds
